From patent publication US20060171884A1 (Amgen, published 2006)
One block for each molecule: values may come before it.

What was measured:
[1] = target: native human Matriptase on cells (human) (UniProt Q9Y5Y6); test: FACS on 22Rv1 cells, antibody at 1 µg/ml
[2] = target: Rhesus Macaque MTSP-1 on 4MBr5 cells (rhesus macaque) (UniProt H9ZCT3); test: FACS on 4MBr5 monkey lung epithelial cells, antibody at 1 µg/ml
[3] = target: T1, Matriptase (soluble enzyme, form not stated) (human, UniProt Q9Y5Y6 615-855, limits assumed); test: competition ELISA: 125 ng/ml biotinylated MTSP1 pre-incubated 1 hour with titrated HAI-1, then transferred to a sc95/96 coated plate, bound MTSP detected with SA-pod; competitor: plate-coated sc95/96
T1 construct: also called Matriptase-1; MT-SP1
T1 sequence: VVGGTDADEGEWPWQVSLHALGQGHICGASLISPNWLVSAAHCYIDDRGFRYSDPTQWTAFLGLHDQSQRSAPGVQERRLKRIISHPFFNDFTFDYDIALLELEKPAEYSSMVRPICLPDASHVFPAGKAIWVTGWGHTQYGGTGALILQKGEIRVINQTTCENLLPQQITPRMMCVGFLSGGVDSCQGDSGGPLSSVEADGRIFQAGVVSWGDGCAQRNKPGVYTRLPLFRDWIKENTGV

geomean (geomean fluorescence) [1]: 5
geomean (geomean fluorescence) [2]: 5
Molecule: IgG1 irrelevant control antibody

IC50 (read off the curve) [3]: ~40 nM
B1: HAI-1 (soluble, as titrated in the competition assay) (other, UniProt O43278 36-465, looked up)
chain: GPPPAPPGLPAGADCLNSFTAGVPGFVLDTNASVSNGATFLESPTVRRGWDCVRACCTTQNCNLALVELQPDRGEDAIAACFLINCLYEQNFVCKFAPREGFINYLTREVYRSYRQLRTQGFGGSGIPKAWAGIDLKVQPQEPLVLKDVENTDWRLLRGDTDVRVERKDPNQVELWGLKEGTYLFQLTVTSSDHPEDTANVTVTVLSTKQTEDYCLASNKVGRCRGSFPRWYYDPTEQICKSFVYGGCLGNKNNYLREEECILACRGVQGGPLRGSSGAQATFPQGPSMERRHPVCSGTCQPTQFRCSNGCCIDSFLECDDTPNCPDASDEAACEKYTSGFDELQRIHFPSDKGHCVDLPDTGLCKESIPRWYYNPFSEHCARFTYGGCYGNKNNFEEEQQCLESCRGISKKDVFGLRREIPIPSTGSVE
